Results taken from US20170052184A1 (published 2017).
Substitutions are numbered along the chain they refer to.

B1: HCV 208A-1064 (antibody, V domains shown)
VH: EVQLQQSGPELVKPGASVKISCKTSGYTFTEYAMHWMKQSHGKSLEWIGGINPTNGDTIYNQKFKDKAKLTVDRSSSTAYMELRSLTSDDSALFYCARRELDYFASWGQGTTLTVSS
VL: DIVLTQSPASLIVSLGQTATISCRASQSVSTSRFSYLHWIQQKPGQPPKLLIKYASNLESGVPVRFSGSGSGTDFTLNIHPVEEEDTATYFCQHSWEFPFTFGSGTKLKIKR
B2: HCV 208A-920 (antibody, V domains shown)
VH: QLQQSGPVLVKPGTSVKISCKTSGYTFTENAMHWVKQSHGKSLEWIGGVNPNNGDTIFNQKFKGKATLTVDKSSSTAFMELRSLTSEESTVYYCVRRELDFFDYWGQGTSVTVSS
VL: B1 VL with I12A, T18R, F34Y, L37M, I40Y, V64A, E83A, T89A, F91Y, K109E
B3: HCV 208A-126 (antibody, V domains shown)
VH: QLQQSGPVLVKPGASVMISCKTSGYTFTENAMHWVKQSHGKSLEWIGGVNPNNGDTIFNQKFKGKATLTVDKSSNTAFTELRSLPSEESTVYYCVRRGLDFFDYWGQGTSVTVSS
VL: B1 VL with I12A, T18R, F34Y, L37M, I40Y, V64A, E83A, T89A, F91Y, K109E
B4: HCV 208A-293 (antibody, V domains shown)
VH: B1 VH with T24A, Y27F, T58A, A105P
VL: B1 VL with T18R, L37V, T76I, K109E
B5: HCV 208A-110 (antibody, V domains shown)
VH: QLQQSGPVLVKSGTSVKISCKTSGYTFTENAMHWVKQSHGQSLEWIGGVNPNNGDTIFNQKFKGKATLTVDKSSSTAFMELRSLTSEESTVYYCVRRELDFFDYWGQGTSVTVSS
VL: B1 VL with I12A, T18R, F34Y, L37M, I40Y, V64A, E83A, T89A, F91Y, K109E
B6: HCV 208A-159 (antibody, V domains shown)
VH: B3 VH with V8A, L9Q, G64D, T67A, N75S, T79M, P85T, G98E
VL: DIVLTQSPASLAVSLGQRATISCRASQSVSTSRYSYVHWYQQKPGQPPKLLIKYAANLESGVPARFSGSGSGTDFTLNIHPVAEEDAAAYYCQHSWEFPFTFGSGTKLEIKR
B7: HCV 208B-251 (antibody, V domains shown)
VH: B3 VH with M17K, F58Y, N75S, T79M, P85T, T90P, Y93F, G98E
VL: B6 VL with Q17K, R18K, V37M, Q46H, A56S, A87T
B8: HCV 208B-1094 (antibody, V domains shown)
VH: B1 VH with K63R
VL: B1 VL with V29L, L37V
B9: HCV 208A-741 (antibody, V domains shown)
VH: B3 VH with N75S, T79M, P85T, G98E
VL: B6 VL with A19T, R24G, Y34F, V37M, A56S, A87T
B10: HCV 208A-334 (antibody, V domains shown)
VH: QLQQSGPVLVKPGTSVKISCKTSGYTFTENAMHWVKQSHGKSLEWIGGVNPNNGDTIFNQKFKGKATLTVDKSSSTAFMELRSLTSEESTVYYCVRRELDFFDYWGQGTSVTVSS
VL: B6 VL with V37M, A56S, A87T, E97G
B11: HCV 208A-133 (antibody, V domains shown)
VH: B3 VH with K11G, K36E, N75S, T79M, L81F, P85T, G98E
VL: B6 VL with V37M, A56S, A87T, A89T
B12: HCV 208B-556 (antibody, V domains shown)
VH: B3 VH with N75S, T79M, L81F, P85T, G98E
VL: B6 VL with V37M, A56S, A87T, A89T
B13: HCV 208B-408 (antibody, V domains shown)
VH: EVKLVESGGGLVQPGGSLRLSCASSGFTFTDYYMSWVRQPPGKALEWLGFIRNKAYGYTTEFSASVNGRFTISRDDSQSVPYLQMNTLRAEDSATYYCARVLYYDYGGFAYWGQGTLVTVST
VL: DIQMTQSPASLSASVGETVTITCRASGNIHTYLAWYQQKQGKSPQLLVYNANTLADGVPSRFSGSGSGTQFSLKINSLQPDDFGSYYCQHFWSAPWTFGGGTQLEIKR
B14: HCV 208A-352 (antibody, V domains shown)
VH: QGQMQQSGAELVKPGASVKLSCKTSGFTFSSSFISWLKQKPGQSLEWIAWIYAGTGNTNYNQKFTDKAQLTVDTSSSTAYMQFSSLTTEDSAIYYCAISGTGFTYWGQGTLVTVSA
VL: DVLMAQTPLSLPVTLGDQASISCRSSQSLVHSNGNTYLEWFLQKPGQSPKLLIYNVSNRFSGVPDRFSGSGSGTDFTLKISRVEAEDLGVYYCFQGSHVPLTFGSGTKLEIKR
B15: HCV 208A-692 (antibody, V domains shown)
VH: B14 VH with V12A, F33Y, Y52F, F83L
VL: EVLMTQSPLSLPVSLGDQASISCRSSQSLEHSNGNTYLEWFLQRPGQPPKLLIYKVSSRFSGVPDRFSGSGSGTDFTLKISRVEAEDLGVYYCFQGSHVPFTFGSGTKLAIKR
B16: HCV 208B-1096 (antibody, V domains shown)
VH: QVQLQQSGAGLAKPGASVKMSCKASGYTFTANKMHWAKQRPGQGLEWIGYIDPSSGYTEYNHKIQYKATLTADTSSSTAYMQLSTLTFEDSAVYYCTNFAYWGQGTLVTVSA
VL: DIVMTQTPLTLSVTIGQPASISCKSSQSLLFTNGKTYLNWFLQRPGQSPKRLIYLLSKLDSGVPDRFSGSGSGTDFTLKISRVEAEDLGVYYCLQSTYFPLTFGAGTKLELKR
B17: HCV 208B-174 (antibody, V domains shown)
VH: EVKLEESGGGLVQPGGSMKLSCVASGFSFSSYWMSWVRQSPEKGLDWVAEIRLRSDNYATHYAESVKGRFTISRDDSISRLYLQMNTLRAEDTGIYYCTWMTYWGQGTLVTVSA
VL: QNVLTQSPAIMSASPGEKVTMSCSASSSVTYMFWYQLKPESSPRLLIYDTSNLASGVPVRFSGSGSGTSYSLTISRMEAEDAATYYCQEWSSYPLTFGAGTKLDLKR
B18: HCV 208B-471 (antibody, V domains shown)
VH: QGQLQQSGPVLVKPGASEILYCKTSGFTFSSTYISWLKQKPGQSLEWIAWIYAGTGATNYNQKFTGKAQLTVDASSNTAYMHFSGLTPEDSAIYYCAISGAGVYWGQGTLVTVSA
VL: B14 VL with L3V, A5T, T14S, V30L, F41Y, K50N, T77A, E84G, S105A, I111L
B19: HCV 208A-983 (antibody, V domains shown)
VH: B14 VH with F33Y, I34F, N59I, S75A, Y80F, F83L, T88I
VL: B14 VL with A5T, T14N, V30L, L101F, E110A

Target: T1, HCV bt-134-154 (Peptide 1, HCVc 134-154) (Hepatitis C virus (numbering per HCV-1), biotin (carboxy-terminal per; N-terminal per))
T1 peptide: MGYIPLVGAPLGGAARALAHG
Test: EIA, captured mAb + biotin peptide

In order of rising “Reactivity (OD 492 nm)” value:
1. B10  0.05 OD units
2. B5  0.07 OD units
3. B4  0.08 OD units
4. B1  0.1 OD units
5. B11  0.1 OD units
6. B7  0.11 OD units
7. B8  0.12 OD units
8. B12  0.13 OD units
9. B6  0.15 OD units
10. B2  0.17 OD units
11. B3  0.2 OD units
12. B13  0.81 OD units
13. B14  1.08 OD units
14. B9  1.2 OD units
15. B15  3.67 OD units

Target: T2, HCV bt-141-161 (Peptide 2, HCVc 141-161) (Hepatitis C virus (numbering per HCV-1), biotin (carboxy-terminal per; N-terminal per))
T2 peptide: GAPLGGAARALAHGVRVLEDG
Test: EIA, captured mAb + biotin peptide

In order of rising “Reactivity (OD 492 nm)” value:
1. B14  0.07 OD units
2. B16  0.13 OD units
3. B3  2.08 OD units
4. B7  2.35 OD units
5. B4  2.42 OD units
6. B5  2.88 OD units
7. B10  3.07 OD units
8. B12  3.07 OD units
9. B8  3.28 OD units
10. B9  3.37 OD units
11. B1  3.5 OD units
12. B11  3.68 OD units
13. B6  3.77 OD units
14. B2  4 OD units

Target: T3, HCV bt-151-171 (Peptide 3, HCVc 151-171) (Hepatitis C virus (numbering per HCV-1), biotin (carboxy-terminal per; N-terminal per))
T3 peptide: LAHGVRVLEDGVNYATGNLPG
Test: EIA, captured mAb + biotin peptide

In order of falling “Reactivity (OD 492 nm)” value:
1. B16  3.56 OD units
2. B7  0.41 OD units
3. B6  0.19 OD units
4. B12  0.18 OD units
5. B13  0.16 OD units
6. B8  0.13 OD units
7. B11  0.13 OD units
8. B1  0.12 OD units
9. B4  0.11 OD units
10. B5  0.11 OD units
11. B3  0.1 OD units
12. B2  0.08 OD units
13. B15  0.07 OD units
14. B9  0.06 OD units
15. B14  0.06 OD units
16. B10  0.05 OD units

target: T4, HCV Core 134-171-TT Peptide (hepatitis C virus (HCV-1 numbering) …); test: SPR, captured mAb, peptide analyte
T4 construct: also called ALRZ-9 peptide

In order of rising Kd:
1. B17  0.25 nM
2. B18  0.25 nM
3. B19  0.46 nM

In order of rising koff:
1. B19  4.6e-05 s⁻¹
2. B18  5.5e-05 s⁻¹
3. B17  0.00018 s⁻¹

In order of rising kon:
1. B19  97000 M⁻¹ s⁻¹
2. B18  220000 M⁻¹ s⁻¹
3. B17  760000 M⁻¹ s⁻¹
